We go through 1 molecule from patent publication US20210147534A1 (RECEPTA BIOPHARMA S A, published 2021).

No end group written: not given here.

The assay addresses T1, recombinant mouse CD74 (mouse, UniProt P04441 56-279, limits assumed).
T1 construct: Bought (Abcam); also called recombinant CD74
T1 sequence (looked up): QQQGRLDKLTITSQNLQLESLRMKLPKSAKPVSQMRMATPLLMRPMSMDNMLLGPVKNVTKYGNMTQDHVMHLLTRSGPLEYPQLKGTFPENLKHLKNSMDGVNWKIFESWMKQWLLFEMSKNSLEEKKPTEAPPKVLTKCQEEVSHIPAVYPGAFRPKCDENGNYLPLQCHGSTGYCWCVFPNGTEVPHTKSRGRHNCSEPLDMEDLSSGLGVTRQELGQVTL
Nature of the assay: chemiluminescent dot-blotting, peptide on nitrocellulose, recombinant CD74 in solution. The protocol:
Membranes were washed and incubated with primary mouse anti-CD74 or anti-MIF (both from Abcam, Cambridge, UK), washed and incubated with secondary anti-mouse IgG-HRP. Immunoreactivity was determined using the ECL Western Blotting Substrate (Millipore, Billerica, Mass.), and signal was detected in a trans-illuminator Uvitec, Cambridge, UK).

B1: Rb10A1 (peptide)
peptide: AARGETARATFAYWGQG-NH2
notes: Linear peptide; N-terminal Cys of Rb10 replaced by alanine; also called A1C
For the molecule B1, the binding result was “no binding”.
